IntAct's records for PubMed 29039417

B1: BBSome complex member BBS5 (Homo sapiens), Q8N3I7 (parent)
chain: MSVLDALWEDRDVRFDLSAQQMKTRPGEVLIDCLDSIEDTKGNNGDRGRLLVTNLRILWHSLALSRVNVSVGYNCILNITTRTANSKLRGQTEALYILTKCNSTRFEFIFTNLVPGSPRLFTSVMAVHRAYETSKMYRDFKLRSALIQNKQLRLLPQEHVYDKINGVWNLSSDQGNLGTFFITNVRIVWHANMNDSFNVSIPYLQIRSIKIRDSKFGLALVIESSQQSGGYVLGFKIDPVEKLQESVKEINSLHKVYSASPIFGVDYEMEEKPQPLEALTVEQIQDDVEIDSDGHTDAFVAYFADGNKQQDREPVFSEELGLAIEKLKDGFTLQGLWEVMS
partner: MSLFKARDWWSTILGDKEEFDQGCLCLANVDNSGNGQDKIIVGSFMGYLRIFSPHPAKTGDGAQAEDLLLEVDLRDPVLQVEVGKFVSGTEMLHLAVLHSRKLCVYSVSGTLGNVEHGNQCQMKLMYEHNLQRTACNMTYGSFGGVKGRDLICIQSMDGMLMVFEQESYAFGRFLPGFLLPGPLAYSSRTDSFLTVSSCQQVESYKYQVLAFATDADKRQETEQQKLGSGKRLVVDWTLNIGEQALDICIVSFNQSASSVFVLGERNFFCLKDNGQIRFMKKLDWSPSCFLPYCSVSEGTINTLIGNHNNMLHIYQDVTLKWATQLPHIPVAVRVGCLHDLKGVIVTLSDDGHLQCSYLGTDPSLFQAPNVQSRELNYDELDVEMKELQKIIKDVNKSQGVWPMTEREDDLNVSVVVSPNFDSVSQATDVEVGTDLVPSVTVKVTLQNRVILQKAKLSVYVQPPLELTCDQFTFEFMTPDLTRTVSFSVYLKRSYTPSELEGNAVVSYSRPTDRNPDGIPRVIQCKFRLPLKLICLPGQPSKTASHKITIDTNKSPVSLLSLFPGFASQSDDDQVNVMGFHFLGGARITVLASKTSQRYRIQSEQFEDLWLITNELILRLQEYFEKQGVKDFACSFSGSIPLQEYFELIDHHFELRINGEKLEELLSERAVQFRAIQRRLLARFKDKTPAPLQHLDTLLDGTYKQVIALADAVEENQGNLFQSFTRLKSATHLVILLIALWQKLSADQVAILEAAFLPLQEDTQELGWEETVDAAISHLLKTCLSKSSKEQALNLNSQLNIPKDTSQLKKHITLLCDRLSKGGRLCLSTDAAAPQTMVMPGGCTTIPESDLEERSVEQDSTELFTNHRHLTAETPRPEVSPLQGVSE

Variants of: B1
Conditions: with pthb1_human BBS9, Q3SYG4

Variant	effect of a mutation on the interaction
I237K	with no effect
I237A	with no effect
L243K	with no effect
L243E	with no effect
L243A	with no effect
P239A	with no effect
P239K	with no effect
P239E	with no effect
K248E	with no effect
K248A	with no effect
V256E	with no effect
V256K	with no effect
V256A	with no effect
D213E	with no effect
D213K	with no effect
D213A	with no effect
E249K	with no effect
E249A	with no effect
F263E	with no effect
F263K	with no effect
F263A	with no effect
H254A	with no effect
H254E	with no effect

Variant	effect of a mutation on the interaction
H254K	with no effect
E270K	with no effect
E270A	with no effect
S225K	with no effect
S225A	with no effect
S225E	with no effect
V232A	with no effect
V232K	with no effect
V232E	with no effect
S228K	with no effect
S228A	with no effect
S228E	with no effect
K215E	with no effect
K215A	with no effect
E268A	with no effect
E268K	with no effect
S214A	with no effect
S214E	with no effect
S214K	with no effect
L220A	with no effect
L220E	with no effect
L220K	with no effect
Y257A	with no effect

Variant	effect of a mutation on the interaction
Y257K	disrupting interaction strength
Y257E	with no effect
P273A	with no effect
P273E	with no effect
P273K	with no effect
S224E	with no effect
S224K	with no effect
S224A	with no effect
G264E	with no effect
G264K	with no effect
G264A	with no effect
Q274E	with no effect
Q274A	with no effect
Q274K	with no effect
L218A	with no effect
L218E	with no effect
L218K	with no effect
I211E	with no effect
I211A	with no effect
I211K	with no effect
N251E	with no effect
N251K	with no effect
N251A	with no effect

Variant	effect of a mutation on the interaction
S258A	with no effect
S258K	with no effect
S258E	with no effect
V221A	with no effect
V221K	with no effect
V221E	with no effect
A219E	with no effect
A219K	with no effect
Q244K	with no effect
Q244A	with no effect
Q244E	with no effect
Q226A	with no effect
Q226K	with no effect
Q226E	with no effect
L233K	with no effect
L233E	with no effect
L233A	disrupting interaction strength
A259K	with no effect
A259E	with no effect
F235K	disrupting interaction strength
F235A	with no effect
F235E	with no effect
